Results: US20250129153A1 (Johns Hopkins, published 2025)
Values belong to the binder of their own block, whether it stands above or below them.

What was measured:
[1] = target: T1, human ZnT8-His (full-length ZnT8, isoform-2, C-terminal His-tag) (human, UniProt Q8IWU4-2 1-320); assay: ELISA titration to ZnT8 proteoliposomes, hyperbolic fit (printed as binding affinity)
T1 construct: mature; Expressed in 293-F cells; Used detergent-solubilized on nickel-coated plates, or purified and reconstituted into DOPC/DOPE/DOPG proteoliposomes (mixed orientations); Described as a homodimer; also called flZnT8; detergent-solubilized ZnT8; not shown: C-terminal His-tag
T1 sequence (looked up): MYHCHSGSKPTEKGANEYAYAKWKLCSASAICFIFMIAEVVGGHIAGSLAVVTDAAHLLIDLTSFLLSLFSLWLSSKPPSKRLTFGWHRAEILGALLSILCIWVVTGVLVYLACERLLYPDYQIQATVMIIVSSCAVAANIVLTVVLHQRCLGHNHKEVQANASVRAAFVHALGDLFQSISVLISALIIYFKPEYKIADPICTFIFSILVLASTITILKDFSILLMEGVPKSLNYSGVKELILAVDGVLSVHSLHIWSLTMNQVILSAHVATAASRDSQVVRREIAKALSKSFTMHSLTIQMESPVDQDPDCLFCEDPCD
Description: (§1) Comparative ELISAs. For proteoliposome-based ELISA, 4 μg proteoliposomes (containing 5% human ZnT8-His by weight) diluted in 100 μl PBS were added to each well of a high-binding 96-well plate, and incubated overnight at 4° C. The passively immobilized proteoliposomes were blocked with 5% BSA, and then tested with hybridoma culture supernatants. For solution-based ELISA, 293-F cells expressing human ZnT8-His or CTD-His were mechanically lysed using a microfluidizer, and cleared of cell debris by ultracentrifugation. Then, 0.2 μg human ZnT8-His from detergent-solubilized cell membrane or 0.1 μg CTD-His from cell lysate in 100 μl PBS were immobilized to each well of a nickel-coated 96-well plate via the C-terminal His-tag. The immobilized protein was blocked by 5% BSA, and then tested with mouse sera in 3-fold serial dilutions or hybridoma culture supernatants. Bound serum antibodies were detected by an HRP-conjugated goat anti-mouse IgG secondary antibody (1:3000) on a Flexstation-3 microplate reader.
Lymphocytes responsible for the production of antibodies to highly conserved epitopes of ZnT8 may be eliminated during the development of self-tolerance that prevents lymphocytes from attacking self-antigens. […]

[2] = target: human CTD-His (cytosolic C-terminal domain of ZnT8, C-terminal His-tag) (human) (UniProt Q8IWU4); assay: ELISA, mAb titration on CTD (CTD-His) captured on a plate
[3] = target: T1, human ZnT8-His (full-length ZnT8, …); assay: ELISA, mAb titration on detergent-solubilized flZnT8 (ZnT8-His) captured on a plate
Excerpt: FIGS. 1A-1G show induction of anti-TMD antibodies and biochemical characterization. […] The TMD is imbedded in the lipid bilayer while the CTD is extended into the cytoplasm. […] Error bars are standard errors from 4 ZnT8-KO or 4 NOD mice, *p<0.01 (n=4). […] Note, ZnT8 in proteoliposomes adopted mixed transmembrane orientations exposing either TMD or CTD to antibody binding as indicated. Solid lines are least-square fits of binding curves to a hyperbolic function with r2>0.98.
as §1, with “The immobilized protein was blocked by 5% BSA, and then tested with mouse sera in 3-fold serial dilutions or hybridoma culture supernatants.” left out

[4] = target: T2, mouse ZnT8 (endogenous, in mouse pancreatic islets and β-cells) (mouse, UniProt Q8BGG0 1-367); assay: flow cytometry of live dispersed mouse pancreatic cells, chimeric mAb20 and PE anti-human IgG, DCV gate
T2 construct: whole, on cells
T2 sequence (looked up): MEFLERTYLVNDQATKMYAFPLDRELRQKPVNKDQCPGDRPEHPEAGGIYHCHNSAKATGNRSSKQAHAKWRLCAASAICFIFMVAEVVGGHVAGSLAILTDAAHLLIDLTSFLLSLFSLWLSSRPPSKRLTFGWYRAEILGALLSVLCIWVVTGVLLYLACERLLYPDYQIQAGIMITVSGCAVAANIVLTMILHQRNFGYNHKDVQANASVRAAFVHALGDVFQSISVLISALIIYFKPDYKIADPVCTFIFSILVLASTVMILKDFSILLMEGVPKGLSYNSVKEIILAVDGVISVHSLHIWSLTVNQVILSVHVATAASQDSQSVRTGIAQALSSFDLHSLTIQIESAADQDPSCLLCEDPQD
Description: Tissue dispersion and pancreatic cell labeling. Excised pancreata from C57BL/6 mice were cut into small pieces, minced, and washed with HBSS on a 70-μm strainer to remove hematopoietic cells. The washed tissue pellets were resuspended in accutase and incubated at 37° C. for 30 min. DCV was added to stain DNA of live cells. The dispersed cells were filtrated through the strainer by a gentle spin at 1200 rpm for 2 min. The remaining tissue pellets underwent additional cycles of accutase digestion and cell filtration to achieve a complete cell dispersion. The dispersed cells were pooled and washed with cold cell culture medium with DNase and trypsin/chymotrypsin inhibitors. At this point, cell viability, measured by trypan blue exclusion, was typically over 80%. […] Chimeric mAb20 was used as an isotype control.
Fluorescence activated cell sorting and confocal microscopy analysis. The labeled pancreatic cells were analyzed and sorted immediately on a MoFlo XDP cell sorter (Beckman Coulter) equipped with a 405 and 561 nm laser. Data were collected on forward scatter, side scatter, and 440 nm and 578 nm fluorescence channels. Cells gated on forward and side scatter yielded >1 million single-cell counting events. The sorted cells in R0 or R1 gate were deposited on the glass bottom of a microwell dish by a gentle centrifugation (1200 rpm, 1 min). […]

[5] = target: T3, human ZnT8 (endogenous, in EndoC-βH1 cells and human pancreatic islets) (human, UniProt Q8IWU4 1-369); assay: cell-based or functional assay
T3 sequence: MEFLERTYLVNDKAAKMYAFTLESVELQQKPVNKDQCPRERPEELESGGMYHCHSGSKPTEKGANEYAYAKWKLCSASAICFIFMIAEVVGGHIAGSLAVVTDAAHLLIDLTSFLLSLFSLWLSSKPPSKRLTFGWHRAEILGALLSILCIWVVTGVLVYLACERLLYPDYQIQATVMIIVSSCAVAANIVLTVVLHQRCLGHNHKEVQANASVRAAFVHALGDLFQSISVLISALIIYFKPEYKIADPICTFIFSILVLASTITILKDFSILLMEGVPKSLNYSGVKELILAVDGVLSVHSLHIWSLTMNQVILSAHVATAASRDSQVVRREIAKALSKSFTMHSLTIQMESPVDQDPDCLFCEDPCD

[6] = target: T2, mouse ZnT8 (endogenous, in mouse …); assay: immunofluorescence of dispersed, fixed and permeabilized mouse islet cells
[7] = target: T3, human ZnT8 (endogenous, in EndoC-βH1 …); assay: imaging quantification, live EndoC-βH1 cells, 8 °C (cell surface binding)
Description: (§2) For intracellular IF labeling, live cells were washed with a high glucose (20 mM) Krebs buffer, fixed using a flowcytometry fixation buffer for 20 min at RT, washed again using PBS, permeabilized with flowcytometry permeabilization buffer for 20 min at RT, blocked with PBS plus 5% BSA for 30 min, and then exposed to mAb43 (1:1000), mAb20 (1:1000), anti-CD71 (1:200) or anti-Na+/K+ ATPase (1:200) antibody for 2 hr at room temperature. Secondary antibody immunolabeling, DAPI counterstain and immunofluorescence imaging were performed using the same procedure as above. For experiments with wild-type INS-1E cells or ZnT8-KO INS-1E cells (13), cells were grown in RMPI 1640 medium supplied with 10% (v/v) fetal bovine serum (FBS), 100 units/ml penicillin, 100 μg/ml streptomycin, 10 mM HEPES, 2 mM glutamine, 1 mM sodium pyruvate and 50 μM β-ME. Immunofluorescence labeling and imaging followed the same procedure as above.
(§3) To track cell-surface capture of mAb43 and the ensuing ZnT8-mediated mAb43 endocytosis, a fluorescent A647 secondary antibody to label mAb20 and mAb43, and a CellMask green stain were used to demarcate the cell boundary. Live EndoC-βH1 cells were monitored for antibody surface binding and internalization. mAb43-A647 was rapidly internalized at 37° C. whereas mAb20-A647 exposure yielded no detectable signal (FIG. 5A). […]

[8] = target: T4, rat ZnT8 (endogenous, in INS-1E cells) (rat, UniProt P0CE46 1-368); assay: immunofluorescence of live INS-1E cells; labeling abolished in ZnT8-knockout INS-1E cells
T4 construct: whole, on cells; also called ZnT8 in rodent β-cells
T4 sequence (looked up): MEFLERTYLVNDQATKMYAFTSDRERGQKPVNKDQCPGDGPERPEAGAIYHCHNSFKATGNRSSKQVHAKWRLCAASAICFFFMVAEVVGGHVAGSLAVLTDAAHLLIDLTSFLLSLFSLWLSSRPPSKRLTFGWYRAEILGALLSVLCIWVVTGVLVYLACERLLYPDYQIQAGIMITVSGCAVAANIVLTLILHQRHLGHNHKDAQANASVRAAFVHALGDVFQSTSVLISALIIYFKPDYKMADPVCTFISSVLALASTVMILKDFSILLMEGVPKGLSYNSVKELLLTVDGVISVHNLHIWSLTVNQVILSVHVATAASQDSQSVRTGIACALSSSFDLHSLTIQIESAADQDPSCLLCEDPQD

[9] = target: T1, human ZnT8-His (full-length ZnT8, …); assay: ELISA titrations
[10] = target: T3, human ZnT8 (endogenous, in EndoC-βH1 …); assay: imaging quantification, live EndoC-βH1 cells, 37 °C (surface binding and uptake)
Description: as §2, §3

Kd [1]: 0.57 nM
EC50 (read off the curve) [2]: 0.7 nM
EC50 (read off the curve) [3]: ~2 nM
B1: mAb20 (antibody, mouse IgG1, kappa, V domains shown)
VH: QIQLVQSGPELKKPGETVKISCKASGYIFTNYPMHWVKQAPGKGLKWMGWINTYSGVPTHADDFKGRFAFSLETSANSAFLQINNLKNEDTATYFCTRSRITPTGGYAMDYWGQGTSVTVSS
VL: DVVMTQTPLSLPVSLGDQASISCRSSQSLVHSNGNTYLHWYLQKPGQSPNLLISKVSNRFSGVPERFSGSGSGTDFTLKISRVEAEDLGVYFCSQNTHVPWTFGGGTKLEIKR
notes: Validated anti-CTD control antibody; also called anti-CTD mAb20; mAb20-A647 (mAb20 labeled with a fluorescent A647 secondary antibody)

binding result [4]: no binding
B2: chimeric mAb20 (mouse/human) (antibody, V domains shown)
VH: B1 VH
VL: DVVMTQTPLSLPVSLGDQASISCRSSQSLVHSNGNTYLHWYLQKPGQSPNLLISKVSNRFSGVPERFSGSGSGTDFTLKISRVEAEDLGVYFCSQNTHVPWTFGGGTKLEIK
notes: also called mouse/human chimeric mAb20

net mAb43-A647 uptake (difference in IF signals between 37 °C and 8 °C), fold increase by glucose stimulation (20 against 2 mM) [5]: 30.9 fold
Kd [1]: 0.42 nM
binding result [6]: binds
fold increase of total mAb43-A647 IF-labeling by glucose stimulation (20 mM against 2 mM) at 8 °C [7]: 15 fold
binding result [8]: binds
fold increase of mAb43 reactivity, ZnT8 in proteoliposomes against detergent-solubilized ZnT8 [9]: 6.29 fold
EC50 (read off the curve) [3]: ~2 nM
fold increase of total mAb43-A647 IF-labeling by glucose stimulation (20 mM against 2 mM) at 37 °C [10]: 22.1 fold
B3: mAb43 (antibody, V domains shown)
VH: EVQLQQSGPELVKPGASVKIACKASGYTFTGYYMKWVKQSLGKSLEWIGDINPNNGGTNYNQHFKGKATLTVDESSSTAYMELRSLTSEDSAVYYCARGVDWIFAFWGQGTLVTVSP
VL: SIVMTQTPKFLPVSAGDRVTMTCKASQSVGNKVAWYQQKPGQSPKLLIYYATNRYTGVPDRFTGSGSGTDFTFTISSVQVEDLAVYFCQQHYSSPWTFGGGTKLEIK
notes: Hybridoma monoclonal antibody from a ZnT8-proteoliposome-immunized NOD mouse; also called mouse mAb43; anti-TMD mAb
